Entries after “also recorded” stand apart in the source; their conditions may differ.
Columns and labels:
Assay type in all cases: biochemical
[1] = Soluble products released from AVICEL by CBM33 proteins (MALDI-TOF MS, HPAEC)
Experimental: The main peaks are annotated with molecular weight and degree of polymerization (DP).
The DP of the oxidized cellooligosaccharides is indicated by n, where n=3 (the shortest labelled oxidized cellooligosaccharide has a DP of three (=n)). […] Peak annotation was performed by comparing the chromatogram with the chromatogram obtained for a chemically prepared mixture of oxidized cellooligosaccharides with lengths varying from DP1 to DP10.
The main peaks are annotated with molecular weight and degree of polymerization (DP). All annotated peaks are Na adducts of native cellooligosaccharides, oxidized cellooligosaccharides (denoted “ox”) or the sodium salts of oxidized cellooligosaccharides.
Products were analyzed after 20 hours of incubation in 20 mM ammonium acetate buffer pH 5.0, 1 mM MgCl2 at 50° C. and 900 rpm (vertical agitation).
Separation of native and oxidized cellooligosaccharides was achieved using a Dionex Bio-LC equipped with a CarboPack PA1, a column temperature of 30° C. and a flow of 0.25 ml/min, with starting conditions, i.e., 0.1 M NaOH. A stepwise linear gradient with increasing amounts of sodium acetate was applied, going from 0.1 M NaOH and 0.1 M sodium acetate in 10 minutes, then to 0.1 M NaOH and 0.3 M sodium acetate for 25 minutes then increasing to 0.1 M NaOH and 1.0 M sodium acetate at 30 minutes which was kept for 10 minutes. Column reconditioning was achieved by a one minute gradient to initial conditions and subsequent running at initial conditions for 14 minutes. Eluted oligosaccharides were monitored by PAD detection. Chromatograms were recorded and analysed using Chromeleon 7.0 Peak identification was achieved by a procedure including the following steps: oxidized cellooligosaccharides were separated using a Dionex Ultimate 3000 UHPLC system carrying a Hypercarb 150×2.1 mm column (Thermo Scientific) running a gradient of water/0.1% TFA and acetonitrile/0.1% TFA (from 20 to 80% acetonitrile) according to the method developed by Westphal et al., 2010, Journal of Chromatography A 1217: 689-695. Eluted peaks were manually fractioned, freeze-dried, re-dissolved in MilliQ water and identified using MALDI-TOF MS. Pure oxidized cellooligosaccharides with known identity were then analyzed using the HPEAC method described above in order to establish the identity of the oxidized cellooligosaccharides generated by CelS2 and E7.

[2] = Time course of filter paper cellulose degradation by […] with CelS2 (FIG. 25)
Experimental: In reactions where no CelS2 was present, 40 μg/ml purified BSA was added in order to maintain an identical protein load. […] Data are mean+/−SD (N=3); error bars indicate SD.

[3] = Cellulase boosting properties of CelS2 at various pHs with monocomponent Cel7A; settings: CelS2 with Cel7A; data not shown
From the text: When probing the cellulose boosting properties of CelS2 at various pHs using monocomponent Cel7A as the cellulose hydrolytic component, pH 5.5 came out as the optimal pH for activity. […] The most obvious reason for the decrease in cellulose hydrolysis at increasing pH is the pH stability and efficiency of Cel7A. […] CelS2 is a bacterial enzyme that originates from Streptomyces species that are known to grow optimally on cellulosic substrates in approximately neutral pH conditions (Kontro et al., 2005, Letters in Applied Microbiology 41: 32-38.).

[4] = Filter paper degradation by […] with CelS2 or E7 (FIG. 20), sugars by HPLC
Experimental: Reactions were run in 50 mM Bis-tris/HCl pH 6.5, 1 mM MgCl2, at 50° C. and 900 rpm (horizontal agitation). Control reactions containing the cellulosic substrate suspended in the same buffer as used for the enzyme assays gave no detectable signal for either glucose or cellobiose.
(§1) The mobile phase consisted of 5 mM sulfuric acid and the flow rate used was 1.0 ml/min. Eluted glucose and cellobiose were monitored by recording refractive index. Quantification was obtained by running glucose and cellobiose standards.
(§2) Assays performed to evaluate the function of E7 and CelS2 were set up using a variety of cellulosic substrates (AVICEL®, filter paper and steam exploded wood chips from poplar), at either pH 5.5 (20 mM sodium acetate buffer), 6.5 (20 mM Bis-Tris buffer) or 8.0 (20 mM Tris buffer) in reaction mixtures containing 1.0 mM MgCl2.

[5] = Soluble oxidized products from other cellulosic variants by CelS2 (MALDI-TOF MS); settings: results not shown
From the text: Finally, other cellulosic variants (filter paper and steam exploded sawdust from poplar) were also probed as substrates for CelS2. […] This is most likely due to the high DP of the cellulose in these substrates; cleavages on the crystalline surfaces will not easily lead to release of soluble (=short) cellooligosaccharides when the overall DP is very high. AVICEL® is special in that it is a form of microcrystalline cellulose that has a very low DP (˜60-100; Wallis et al., 1992, Carbohydrate Polymers 17: 103-110 and Mormann and U, 2002, Carbohydrate Polymers 50: 349-353) compared to that of the other substrates tested.

[6] = Filter paper degradation by HjCel7A with CelS2 over time (FIG. 26); settings: 40 μg/ml CelS2, 5 μg/ml HjCel7A, pH 5.5, 50° C.
Experimental: By far the major products of these reactions are cellooligosaccharides released by the cellulases (whose activity is boosted by CelS2). In the case of HjCel7A, the main product is cellobiose and formation of this product is shown. RG, indicates the presence of a reductant, in this case reduced glutathione. […] The reactions were run at 50° C.

[7] = Filter paper degradation by Cel7A with CelS2 (FIG. 21), cellobiose by HPLC
Experimental: These reactions were conducted in 50 mM sodium acetate pH 5.5, 1 mM MgCl2, at 50° C., 900 rpm (horizontal incubation). Only the cellobiose concentration was quantified as the amount of glucose was minor (less than 5% of the total sugar). Control reactions containing the cellulosic substrate suspended in the same buffer as used for the enzyme assays gave no detectable signal for either glucose or cellobiose.
as §1, §2

[8] = Degradation of steam exploded saw dust from poplar by […] with CelS2 (FIG. 24); settings: 1.0 μM CelS2, CELLUCLAST, 1.0 mM reduced glutathione, pH 5.5, 20 hours
Experimental: as §2

B1: CelS2: multidomain CBM33 with C-terminal CBM2 from Streptomyces coelicolor A3(2) (SEQ ID NO: 7) (protein)
chain: MVRRTRLLTLAAVLATLLGSLGVTLLLGQGRAEAHGVAMMPGSRTYLCQLDAKTGTGALDPTNPACQAALDQSGATALYNWFAVLDSNAGGRGAGYVPDGTLCSAGDRSPYDFSAYNAARSDWPRTHLTSGATIPVEYSNWAAHPGDFRVYLTKPGWSPTSELGWDDLELIQTVTNPPQQGSPGTDGGHYYWDLALPSGRSGDALIFMQWVRSDSQENFFSCSDVVFDGGNGEVTGIRGSGSTPDPDPTPTPTDPTTPPTHTGSCMAVYSVENSWSGGFQGSVEVMNHGTEPLNGWAVQWQPGGGTTLGGVWNGSLTSGSDGTVTVRNVDHNRVVPPDGSVTFGFTATSTGNDFPVDSIGCVAP
modifications: Streptomyces coelicolor
- CelS2 activity at pH 8.0 ([1]; AVICEL, FIG. 19): active
- release of soluble native/oxidized cellooligosaccharides from AVICEL ([1]; with external electron donor (ascorbic acid or reduced glutathione)): soluble oligomeric products were observed
- effect on CELLUCLAST (CC) production of soluble glucose over time ([2]; 10 mg/ml filter paper, 0.8 μg/ml CC, pH 5.5): production of soluble glucose continues
- Glc or Glc2 released without cellulase ([2]; reactions with only CelS2): did not yield detectable amounts of Glc or Glc2
- activity at pH 6.5 [3]: Less activity
- activity at pH 8.0 [3]: no activity could be detected
- optimal pH for activity [3]: 5.5
- increase of glucose yield versus CELLUCLAST only ([4]; no external electron donor, 24 hours): ~3.0 fold
- increase of glucose yield versus CELLUCLAST only ([4]; no external electron donor, 120 hours): ~9 fold
- increase of glucose yield versus CELLUCLAST only ([4]; with external electron donor (1 mM reduced glutathione), 24 hours): ~5 fold
- increase of glucose yield versus CELLUCLAST only ([4]; with external electron donor (1 mM reduced glutathione), 120 hours): ~11 fold
- soluble oxidized cellooligosaccharides [5]: Soluble oxidized cellooligosaccharides were not observed
- effect on Cel7A activity (cellobiose formation) [6]: boosts the activity of the cellulase, Cel7A; also recorded: prolongs the activity of Cel7A
- improvement of Cel7A activity (cellobiose yield) ([7]; absence of external electron donor, 18 hours): 5.5 fold
- improvement of Cel7A activity (cellobiose yield) ([7]; absence of external electron donor, 40 hours): 7.3 fold
- improvement of Cel7A activity (cellobiose yield) ([7]; presence of external electron donor, 18 hours): 6.7 fold
- improvement of Cel7A activity (cellobiose yield) ([7]; presence of external electron donor, 40 hours): 9.8 fold
- cellulase boosting effect (cellobiose release) [8]: ~2 fold
